Measurements as given in patent publication US20260116991A1 (HAINAN SIMCERE ZAIMING PHARMACEUTICAL, published 2026).

B1: F1.110.24 (antibody, human IgG1, kappa, V domains shown)
VH: EVKLVESGGGLVQPGGSLKLSCAASGFTFSDFYMYWVRQTPEKRLEWVAFISNGGGSTYYPDTVKGRFTISRDNVKNTLYLQMSRLKSEDTAMYYCARPDTSWFAYWGQGSLVTVSA
VL: DIQMTQTTSSLSASLGDRVTISCRASQDIDNYLNWYQQKPDGTVKVLISYTSRLHSGVPSRFSGSGSGTDYSLTISNLEQEDIATYFCQQGNTLPWTFGGGTKLEIKR
notes: human-murine chimeric antibody
B2: F4.26.1 human-murine chimeric antibody (antibody, human IgG1, kappa, V domains shown)
VH: QVQLKQSGPGLVQPSQSLSITCTVSGFSLTSYGVHWVRQSPGKGLEWLGVIWSSGNTDYNAVLISRLSIKKDDSKSQVFFKMNSPQVDDSAIYYCGRNGGWLLRGFMDFWGQGTSVTVSS
VL: DVVMTQTPLSLPVSLGDQASISCRSSQSLLHSNGNTYLHWYLQRSGQSPNLLIYKVSNRFSGVPDRFSGGGSGTDFTLKISRVEAEDLGIYFCSQSTHVPWTFGGGTKLEIKR
B3: F1.92.17 (antibody, human IgG1, kappa, V domains shown)
VH: EVQLQQSGPELVKPGASVKMSCKASGYTFTDYNMHWVRQSHGKSLEWIGYINPNNGDTIYNQNFKGKATLTVNKSSSTAYMELRSLTSEDSAVYYCSRTITYYYSMDYWGPGTSVTVSS
VL: QIVLTQSPALMSASPGEKVTMTCSASSSVSYMYWYQQKPRSSPKPWIYLTSNLASGVPARFSGSGSGTSYSLTISSMEAEDAATYYCQQWSSNPLTFGAGTKLELKR
notes: as for B1
B4: F1.78.24 (antibody, human IgG1, kappa, V domains shown)
VH: QVQLQQSGAELVKPGASVKMSCKASGYTFTTYPIEWMKQNHGKSLEWIGNFHPYNDDTNYNVKFKGKATLTVEKSSSTVYLELSRLTSDDSALYYCARRREYYGSFDVWGTGTTVTVSS
VL: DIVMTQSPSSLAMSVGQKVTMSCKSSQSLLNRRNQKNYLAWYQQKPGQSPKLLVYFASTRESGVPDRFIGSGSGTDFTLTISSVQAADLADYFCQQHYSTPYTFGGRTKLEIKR
notes: as for B1
B5: F4.13.7 human-murine chimeric antibody (antibody, human IgG1, kappa, V domains shown)
VH: QVQLQQPGAELVKPGASVKLSCKASGYTFTNNWVHWVKQRPGQGLEWTGMIHPDSGSTIYNEKFQSKATLTVDKSSSTAYMQLSSLTSEDSAVYYCARGYYDSSSYYAMDYWGQGTSVTVSS
VL: NIQMTQTTSSLSASLGDRVTISCSASQGIFNYLNWYQQKPDGTVKLLIYYTSSLHSGVPSRFSGSGSGTDYSLTISNLEPEDIATYYCQQYSKLPWTFGGGTKLEIKR
B6: F1.42.8 (antibody, human IgG1, kappa, V domains shown)
VH: HVQLQQPGAELVKPGASVKLSCKASGYTFTSYWMHWVRQRPGQGLEWIEMIHPNSGSTNYNEKFKSKATLTVDKSSSTAYMQLSSLTSEDSAVYYCARGNYNSSLYAMDYWGQGTSVTVSS
VL: DIQMTQTTSSLSASLGDRVTISCSASQGISNYLNWYQQKPDGTVKLLIYYASNLHSGVPSRFSGSGSGTAYSLTISNLEPEDIATYYCQQYSILPYTFGGGTKLEIKR
notes: as for B1
B7: F1.41.17 (antibody, human IgG1, kappa, V domains shown)
VH: EVQLVESGGDSVKPGGSLKLSCAASGFTFSSYGMSWVRQTPDKRLEWVATINSGGSYTYYQDSVKGRFTISRDNAKNTLYLQMSSLKSEDTAIYYCVRHHYGSSYDYFDYWGQGTTLTVSS
VL: DIVMTQAAPSVPVMPGESVSISCRSSKSLLHSNGNTHLYWFLQRPGQSPQLLIYRMSNLASGVPDRFSGSGSGTAFTLRISRVEAEDVGVYYCMQHLEYPLTFGAGTKLELKR
notes: as for B1
B8: F4.18.4 human-murine chimeric antibody (antibody, human IgG1, kappa, V domains shown)
VH: QVQLHQSGAEMAKPGASVNLSCKTSGFTFTDYGISWVKQRTRQGLEWIGDIYPRHINIYYNEKFKDKATLTADRSSSTAYMELRSMTSEDSAVYFCARRGTTGRGALDYWGQGTSLTVSS
VL: DILLTQSPAILSVSPGERVSFSCRASQSIGTSIHWYQQRTNGSPRLLIKYAFESISGIPSRFGGSGSRTDFTLTINSVESEDIADYYCQQTYNWPYTFGGGTKLEIKR
B9: F1.73.9 (antibody, human IgG1, kappa, V domains shown)
VH: QVQLKQSGAELVRPGASVKLSCKASGYTFTDYYINWVKQRPGQGLEWIARIYPGSGNTYYNEKFKGKATLTAEKSSSTAYMQFSSLTSEDSAVYFCACSTYYTMDYWGQGTSVTVSS
VL: QIVLTQSPAIMSASLGERVTMTCTASSGVSSSYLHWYQQKPGSSPKLWIYTTSNLASGVPARFSGSGSGTSYSLTISSMEAEDAATYYCHQYHRSPYTFGGGTKLEIKR
notes: as for B1
B10: F4.21.16 human-murine chimeric antibody (antibody, human IgG1, kappa, V domains shown)
VH: DVQLQESGPGLVKPSQSLSLTCSVTGYSITSGYYWNWIRQFPGNKLEWMGYISYDVTVNYNPSLKNRISITRDTSKNQFFLKLNSVTTEDTATYYCATITSVASMDHWGQGTSVTVSS
VL: DILMTQTPLSLPVSLGDQASISCRSSQNIVHRNGNTYLEWYLQKPGQSPKLLLYKVSNRFSGVPDRFSGSGSGTDFTLKISRVEAEDLGIYYCFQGSHFPFTFGSGTKLEIKR
B11: F1.57.21 (antibody, human IgG1, kappa, V domains shown)
VH: QVQLQQSGAELARPGASVKLSCKASGYTFTSYGISWVKQITGQGLEWIGEIYPRSESTYYNEKFKGKATLTADKSSSTAYMELRSLTSEDSAVYFCARDYGNIYSFAYWGQGTLVTVSA
VL: DIQMTQSPASLSASVGETVTITCRTSENIYSYLAWYQQKQGKSPQLLVYNAKTLAEGVPSRFSGSGSGTQFSLKINSLQPEDFGSYYCQHHYGTPLTFGAGTKLELKR
notes: as for B1
B12: F1.83.6 (antibody, human IgG1, kappa, V domains shown)
VH: QVQLQQSGPELVKPGASVKISCKASGYAFSSSWMNWVKQRPGKGLEWIGRIYPGDGDTNYNGRFKGKATLTVDKSSSTAYMQLSSLTSEDSAVYFCARGGVFTMALDHWGQGTTLTVSS
VL: DIQMTQSPSSLSASLGGKVTITCKASQDINKYIAWYQHKPGKGPRLLIHYTSTLQPGIPSRFSGSGSGRDYSFSISNLEPEDIATYYCLQYDNLFTFGGGTKLEIKR
notes: as for B1
B13: F3.81.19 human-murine chimeric antibody (antibody, human IgG1, kappa, V domains shown)
VH: QVQLQQSGAELVRPGASVKLSCKASGYTFTDYEMHWVKQTPVHGLEWIGTIDPETGNTAYNQKFKGKATLTADKSSSTAYMELRSLTSEDSAVYYCTRPYSLTYWGQGTLVTVSA
VL: DVLLTQTPLSLPVSLGDQASISCRSSQSFVHSNGDTYLQWYLQKPGQSPKLLIYKVSNRFSGVPDRFSGSGSGTDFTLKISRVEAEDLGVYYCFQGSHVPYTFGSGTKLEIKR

How the values were obtained:
polypeptide GC3pep [1] = target: T1, polypeptide GC3pep (human); experiment: ELISA, GC3pep coated, antibody 0.1 nM;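 also: antibody allowed to bind the coated plate 2 h at 37 °C, then detected via HRP-conjugated secondary antibody and TMB development for 10 min, stopped with HCl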
T1 construct: also called membrane proximal polypeptide GC3pep
T1 peptide: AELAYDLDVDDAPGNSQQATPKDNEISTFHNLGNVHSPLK

polypeptide GC3pep [2] = target: T1, polypeptide GC3pep; experiment: ELISA, GC3pep coated, antibody 1 nM;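 also: bound antibody detected with an HRP-conjugated secondary antibody and TMB substrate, reaction stopped with HCl, after 2 h binding at 37 °C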
Procedure: (§1) The plate was sealed with a plastic film and incubated at 4° C. overnight, washed twice with PBS the next day, and a blocking solution [PBS+2% (w/w) BSA] was added for blocking at room temperature for 2 h. […] After incubation at 37° C. for 2 h, the plate was washed 3 times with PBS. A horseradish peroxidase (HRP)-labeled secondary antibody (purchased from Merck, Cat. No. AP113P) was added for incubation at 37° C. for 1 h, and the plate was washed 5 times with PBS. A TMB substrate was added at 50 μL/well for incubation at room temperature for 10 min, then a stop solution (1.0M HCl) was added at 50 μL/well.

polypeptide GC3pep [3] = target: T1, polypeptide GC3pep; experiment: ELISA, GC3pep coated, antibody 0.01 nM;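 also: bound antibody detected with an HRP-conjugated secondary antibody and TMB substrate, color reaction stopped with HCl before reading absorbance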
Procedure: as §1

polypeptide GC3pep [4] = target: T1, polypeptide GC3pep; experiment: ELISA, GC3pep coated, antibody 0.001 nM
polypeptide GC3pep [5] = target: T1, polypeptide GC3pep; experiment: ELISA, GC3pep coated, antibody 10 nM;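 also: antibody bound to the coated peptide for 2 h at 37 °C, detected through an HRP-conjugated secondary antibody with TMB colour development stopped by acid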
Procedure: as §1

polypeptide GC3pep [6] = target: T1, polypeptide GC3pep; experiment: ELISA, GC3pep coated, antibody 0.0001 nM
polypeptide GC3pep [7] = target: T1, polypeptide GC3pep; experiment: ELISA, GC3pep coated, antibody 100 nM;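 also: detection with an HRP-conjugated secondary antibody and TMB substrate, color reaction stopped with HCl before absorbance reading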
Procedure: as §1

human GPC3-His protein [8] = target: T2, human GPC3-His protein (human, UniProt P51654 25-559); experiment: ELISA, coated human GPC3, antibody 0.01 nM;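 also: Plate-bound antigen coated at 1 µg/mL, antibody incubated 2 h at 37 °C, binding detected by HRP-conjugated secondary antibody with TMB substrate, read as absorbance at 450 nm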
T2 construct: Bought protein; also called human GPC3 protein; not shown: His tag

[9] = target: T3, human GPC3 on CHO-K1-human GPC3 cells (clone CHOK1-hGPC3.2B5) (human, UniProt P51654 25-554); experiment: FACS on CHOK1-hGPC3.2B5 cells;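 also: flow cytometry binding of chimeric antibodies to the cells, read out as mean fluorescence intensity, with the half-maximal concentration derived by curve fitting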
T3 construct: whole, on cells; Stably transfected CHO-K1 clone 2B5
Procedure: (§2) The desired cells were expanded to a logarithmic growth phase in a T-75 cell culture flask, the medium was removed by pipetting, and the cells were washed twice with a PBS buffer, and digested with trypsin. Then a complete medium was added to stop the digestion, and the cells were blown into a single cell suspension. After counting, the cells were centrifuged, and the cell pellet was resuspended with an FACS buffer (PBS+2% fetal bovine serum) to 2×10⁶ cells/mL. The cell resuspension solution was added to a 96-well FACS reaction plate at 50 μl/well, and a chimeric antibody sample to be tested was added at 50 μl/well for incubation at 4° C. for 1 h. […] After the plate was centrifuged and washed 3 times with a PBS buffer, 100 μl of the resulting solution was assayed and analyzed by FACS (FACS Canto™, purchased from BD Biosciences). Data analysis was performed by software (FlowJo) to obtain the mean fluorescence intensity (MFI) of the cells. Then, analysis was performed by software (GraphPad Prism8), data were fitted, and EC₅₀ values were calculated.

human GPC3-His protein [10] = target: T2, human GPC3-His protein; experiment: ELISA, coated human GPC3, antibody 100 nM;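 also: antibodies bound to antigen-coated 96-well plates (1 µg/mL), 2 h at 37 °C, detected with HRP-labelled secondary antibody and TMB substrate, absorbance read at 450 nm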
Procedure: (§3) The specific method is described as follows: The antigen protein was diluted with PBS to a final concentration of 1 μg/mL, and the diluent was added to a 96-well ELISA plate at 50 μL/well. The plate was sealed with a plastic film and incubated at 4° C. overnight, washed twice with PBS the next day, and a blocking solution [PBS+2% (w/w) BSA] was added for blocking at room temperature for 2 h. […] After incubation at 37° C. for 2 h, the plate was washed 3 times with PBS. A horseradish peroxidase (HRP)-labeled secondary antibody (purchased from Merck, Cat. No. AP113P) was added for incubation at 37° C. for 1 h, and the plate was washed 5 times with PBS. A TMB substrate was added at 50 μL/well for incubation at room temperature for 10 min, then a stop solution (1.0M HCl) was added at 50 μL/well. An ELISA plate reader (Multimode Plate Reader, EnSight, purchased from Perkin Elmer) was used to read OD_{450 nm} values, with results as shown in Table 4 to Table 6, FIG. 1A, FIG. 1B, and FIG. 1C.

human GPC3-His protein [11] = target: T2, human GPC3-His protein; experiment: ELISA, coated human GPC3, antibody 0.001 nM
[12] = target: T4, GPC3 endogenously expressed on HepG2 cells (UniProt P51654 25-554); experiment: FACS on HepG2 cells;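 also: flow cytometric binding of chimeric antibodies to cells, read as mean fluorescence intensity, EC50 obtained by curve fitting of the MFI data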
T4 construct: whole, on cells
Procedure: as §2

human GPC3-His protein [13] = target: T2, human GPC3-His protein; experiment: ELISA, coated human GPC3, antibody 1 nM;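 also: antigen coated at 1 µg/mL on 96-well plates, antibody bound for 2 h at 37 °C, detected with HRP-labeled secondary antibody and TMB, absorbance read at 450 nm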
human GPC3-His protein [14] = target: T2, human GPC3-His protein; experiment: ELISA, coated human GPC3, antibody 0.0001 nM
human GPC3-His protein [15] = target: T2, human GPC3-His protein; experiment: ELISA, coated human GPC3, antibody 0.1 nM;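 also: antigen coated on 96-well plates at 1 µg/mL, antibody bound 2 h at 37 °C, detected with HRP-labeled secondary antibody and TMB substrate, acid-stopped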
human GPC3-His protein [16] = target: T2, human GPC3-His protein; experiment: ELISA, coated human GPC3, antibody 10 nM;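 also: plate coated with antigen at 1 µg/mL, antibodies bound 2 h at 37 °C, detected via HRP-conjugated secondary antibody and TMB substrate, absorbance read after acid stop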
Procedure: as §3

Binder | OD450 nm (polypeptide GC3pep [1]) | OD450 nm (polypeptide GC3pep [2]) | OD450 nm (polypeptide GC3pep [3]) | OD450 nm (polypeptide GC3pep [4]) | OD450 nm (polypeptide GC3pep [5]) | OD450 nm (polypeptide GC3pep [6]) | OD450 nm (polypeptide GC3pep [7]) | OD450 nm (human GPC3-His protein [8]) | EC50 [9] | Max MFI [9] | OD450 nm (human GPC3-His protein [10]) | OD450 nm (human GPC3-His protein [11]) | EC50 [12] | Max MFI [12] | OD450 nm (human GPC3-His protein [13]) | OD450 nm (human GPC3-His protein [14]) | OD450 nm (human GPC3-His protein [15]) | OD450 nm (human GPC3-His protein [16])
B1 | 0.05 OD450 nm | 0.04 OD450 nm | 0.05 OD450 nm | 0.05 OD450 nm | 0.07 OD450 nm | 0.04 OD450 nm | 0.06 OD450 nm |  |  |  |  |  |  |  |  |  |  | 
B2 |  |  |  |  |  |  |  | 0.18 OD450 | 1.21 nM | 2810 MFI | 1 OD450 | 0.11 OD450 | 0.85 nM | 1600 MFI | 1.25 OD450 | 0.09 OD450 | 0.64 OD450 | 1.43 OD450
B3 | 0.06 OD450 nm | 0.05 OD450 nm | 0.05 OD450 nm | 0.05 OD450 nm | 0.06 OD450 nm | 0.05 OD450 nm | 0.1 OD450 nm |  |  |  |  |  |  |  |  |  |  | 
B4 | 0.05 OD450 nm | 0.05 OD450 nm | 0.05 OD450 nm | 0.05 OD450 nm | 0.05 OD450 nm | 0.05 OD450 nm | 0.06 OD450 nm |  |  |  |  |  |  |  |  |  |  | 
B5 |  |  |  |  |  |  |  | 0.3 OD450 | 1.1 nM | 1710 MFI | 2.3 OD450 | 0.12 OD450 | 0.58 nM | 1150 MFI | 2.28 OD450 | 0.1 OD450 | 1.27 OD450 | 2.27 OD450
B6 | 0.05 OD450 nm | 0.05 OD450 nm | 0.05 OD450 nm | 0.05 OD450 nm | 0.05 OD450 nm | 0.05 OD450 nm | 0.06 OD450 nm |  |  |  |  |  |  |  |  |  |  | 
B7 | 0.05 OD450 nm | 0.05 OD450 nm | 0.05 OD450 nm | 0.05 OD450 nm | 0.05 OD450 nm | 0.05 OD450 nm | 0.06 OD450 nm |  |  |  |  |  |  |  |  |  |  | 
B8 |  |  |  |  |  |  |  | 0.26 OD450 | 0.89 nM | 2370 MFI | 1.02 OD450 | 0.15 OD450 | 0.92 nM | 1390 MFI | 1.41 OD450 | 0.16 OD450 | 0.83 OD450 | 1.18 OD450
B9 | 0.05 OD450 nm | 0.05 OD450 nm | 0.05 OD450 nm | 0.05 OD450 nm | 0.05 OD450 nm | 0.04 OD450 nm | 0.09 OD450 nm |  |  |  |  |  |  |  |  |  |  | 
B10 |  |  |  |  |  |  |  | 0.15 OD450 | 3.25 nM | 2170 MFI | 0.52 OD450 | 0.1 OD450 | 2.31 nM | 1710 MFI | 1.37 OD450 | 0.1 OD450 | 0.46 OD450 | 1.14 OD450
B11 | 0.05 OD450 nm | 0.05 OD450 nm | 0.05 OD450 nm | 0.05 OD450 nm | 0.05 OD450 nm | 0.05 OD450 nm | 0.06 OD450 nm |  |  |  |  |  |  |  |  |  |  | 
B12 | 0.05 OD450 nm | 0.05 OD450 nm | 0.05 OD450 nm | 0.05 OD450 nm | 0.06 OD450 nm | 0.04 OD450 nm | 0.07 OD450 nm |  |  |  |  |  |  |  |  |  |  | 
B13 |  |  |  |  |  |  |  | 0.19 OD450 | 2.58 nM | 14100 MFI | 2.45 OD450 | 0.28 OD450 | 2.72 nM | 5740 MFI | 2.04 OD450 | 0.1 OD450 | 0.87 OD450 | 2.49 OD450
